Reference: article PMC9967328 (International Journal of Molecular Sciences, 2023)

What was measured:
[1] = target: the molecule itself; assay: SEC; analytical SEC, 10 µM enzyme loaded on Superdex 200 Increase 10/300, 50 mM HEPES pH 8.0, 150 mM NaCl, 20 µM PLP, samples incubated at 25 °C for 20 min; oligomeric state from the elution volume; the limits of K_Dtet-dim are of the step tetramer to dimers
[2] = target: the molecule itself; assay: as above; remark: listed apart in the source

B1: human ornithine aminotransferase R154L pathogenic variant (enzyme)
chain: TSVATKKTVQGPPTSDDIFEREYKYGAHNYHPLPVALERGKGIYLWDVEGRKYFDFLSSYSAVNQGHCHPKIVNALKSQVDKLTLTSRAFYNNVLGEYEEYITKLFNYHKVLPMNTGVEAGETACKLALKWGYTVKGIQKYKAKIVFAAGNFWGRTLSAISSSTDPTSYDGFGPFMPGFDIIPYNDLPALERALQDPNVAAFMVEPIQGEAGVVVPDPGYLMGVRELCTRHQVLFIADEIQTGLARTGRWLAVDYENVRPDIVLLGKALSGGLYPVSAVLCDDDIMLTIKPGEHGSTYGGNPLGCRVAIAALEVLEEENLAENADKLGIILRNELMKLPSDVVTAVRGKGLLNAIVIKETKDWDAWKVCLRLRDNGLLAKPTHGDIIRFAPPLVIKEDELRESIEIINKTILSF
modifications: PLP on Lys292 (internal aldimine)
[1]
  Kd: > 10 µM
[2]
  stoichiometry N: 2
